Results as given in US20240218057A1 (ROCKEFELLER UNIVERSITY, published 2024).
Where a chain is given by its changes, count along the chain named.

B1: C860 (antibody, V domains shown)
VH: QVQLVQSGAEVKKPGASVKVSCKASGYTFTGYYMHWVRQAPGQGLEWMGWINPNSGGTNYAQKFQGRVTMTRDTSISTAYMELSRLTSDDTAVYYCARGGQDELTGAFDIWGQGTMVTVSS
VL: SYELTQPPSVSVAPGKTARITCGGNSIGSKSVHWYQQKPGQAPVLVIYYDSDRPSGIPERFSGSNSGNTATLTISRVEAGDEADFHCQVWDSGWVFGGGTKLTVL
notes: IgG; V domains only
B2: C852 (antibody, V domains shown)
VH: QVQLVQSGAEVKKPGASVKVSCKASGYIFTGFYMHWVRQAPGQGPEWMGWINPNSGGTNYAQKFQGRVTMTRDTSISTAYMELSRLRSDDTALYYCARGGQDELTGTFDVWGQGTMVTVSS
VL: B1 VL with V12L, R19S, N25D, K38R, V44I, S51G, F85Y, H86Y, S92G
notes: IgG; V domains only
B3: C839 (antibody, V domains shown)
VH: QVQLQESGPGLVKPLDTLSLTCTVSGASISSYYWSWIRQPAGKGLEWIGLIYSSGSTTYNPSLKSRVTMSVDTSKKQFSLNLSSMTAADTAVYYCARGSALNWKSIGYFDSWGQGTLVTV
VL: DIQMTQSPSSLSASIRDRVTITCQASQDISNYLNWYQQKAGEAPKLLIYDASSLETGVPSRFSGSGSGTEFTLTISSLQPEDIATYYCQQYDHVPLTFGGGTKVEIK
notes: IgG; V domains only
B4: C850 (antibody, V domains shown)
VH: QVQLQESGPGLVKPSETLSLICSVSGVSVSSRNFFWSWIRQPPGKGLEWIGYMSYGGNTNYNPSLKSRVTISIDTSKNQFSLKLSSVTAADTAVYYCARETYYYDRSGYYSSDGFDYWGQGILVTVSS
VL: EIVLTQSPGTLSLSPGERATLSCRASQSITSSSLAWYQQKRGQPPRLLIYGASSRATGIPDRFSGSGSGTDLTLTISRLEPEDFAVYYCQQYGNSPYTFGQGTKLEIK
notes: IgG; V domains only
B5: C848 (antibody, V domains shown)
VH: QVQLQESGPGLVKPSQTLSLTCTVSGGSISSGDYYWSWIRQPPGKGLEWIGYIYYTGITYYRPSLKSRVTISVDTSKNQFSLKLSSVTAADTAVFYCARVVRLWPRYFDSWGQGTLVTVSS
VL: QSALTQPPSASGSPGQSVTISCTGTSSDVGTYDYVSWYQQHPGKAPKVIIYEVTKRPSGVPDRFSGSKSGNTASLTVSGLQAEDEAHYYCSTYAGSDNLEFGGGTKLTVL
notes: IgG; V domains only
B6: C857 (antibody, V domains shown)
VH: QVQLQESGPGLVKPSQTLSLTCTVSGGSISSGGYYWSWIRQHPGKGLEWIGYIYYSGSTYYNPSLESRVTISVDTSKNQFSLKLSSVTAADTAVYYCASGELSAFGELFPHDYWGQGTLVTVSS
VL: EIVLTQSPATLSLSPGERATLSCRASQSVSTYLAWYQQKPGQAPRLLIYDASNRATGIPARFSGSGSGTDFTLTISSLEPEDFAVYYCQQRSNWLFTFGPGTKVDIK
notes: IgG; V domains only
B7: C845 (antibody, V domains shown)
VH: QVQLQESGPGLVKPSQTLSLTCTVSGASISSGEYYWSWVRQPPGKGLEWVGYIYYSGSTYYNPSLKSRVTISVDTSKNHFSLKLKSLTAADTAVYFCATGGLSAFGELFPHDKWGQGTLVTVSS
VL: B6 VL with S30G, T31S, Y32D, A51T, E79D, E81A, S92T, T97S
notes: IgG; V domains only
B8: C863 (antibody, V domains shown)
VH: EVQLLESGGGLVRPGGSLRLSCAASGFIFGSYAMTWVRQAPGKGLEWVSTISGGGTSTDYADSVKGHFTISRDNGKNTLYLQMNSLRAEDTAVYYCVKESDYYMASVNGMDVWGHGTTVTVSS
VL: EIVLTQSPGTLSLSPGERATLSCRARQGVSSTYLAWYQQKPGQAPRLLIYGASSRATGIPDRFSGSGSGADFTLTISRLEPEDFAVYYCQQYGTSPYTFGQGTKLEIK
notes: IgG; V domains only
B9: C840 (antibody, V domains shown)
VH: QVQLVESGGGVVQPGRSLRLSCEASGFTFTAYAMHWLRQAPGKGLEWVAVILNDGSNKLYADSVKGRFTVSRDNSKNMLYLQVNSLRVDDTAVYYCARDGSVDTLMVTWFDYWGQGTLVTVSS
VL: DIQMTQSPSSLSASVGDRVTITCRASQSVNNYLNWYQQKPGQAPKLLIYAASSLQSGVPLRFSGSGSGTDFALTITSLHTEDFATYYCQQSYNTPPWTFGPGTKVEIK
notes: IgG; V domains only
B10: C847 (antibody, V domains shown)
VH: QVQLVESGGGVVQPGGSLRLSCGASGFTFSSYAMHWVRQAPGEGLEWVAVILYDGAGKFYADSVKGRFTISRDNSKNTLYLQMNSLRAEDTAVYYCARDYGDYVTHFDYWGQGALVTVSS
VL: B9 VL with V29I, N30S, N31S, Q42K, A50T, L60S, A72T, H79Q, T80P, P101Q
notes: IgG; V domains only
B11: C842 (antibody, V domains shown)
VH: QVQLVESGGGVVQPGRSLRLSCAASGFTFSTYAIHWVRQAPGKGLEWVAAISYDGSNKYYSDSVKGRLFISRDNSNNTVYLQMNNLRAEDTAIYYCARDGTIVTLVRGVMGPPFDYWGQGTLVTVSS
VL: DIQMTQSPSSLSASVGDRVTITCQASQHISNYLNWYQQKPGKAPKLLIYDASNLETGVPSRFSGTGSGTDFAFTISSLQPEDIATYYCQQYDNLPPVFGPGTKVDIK
notes: IgG; V domains only
B12: C865 (antibody, V domains shown)
VH: EVQLLESGGGLVQPGGSLRLSCVASRFIFSRYALSWVRQAPGKGLEWVSGISGSGHSTHYADSVTGRFTISRDNSKNTVYLQMSSLRAEDTAVYYCAKGPRSNYDYFESWGQGTLVTVSS
VL: DIQLTQSPSSLSASVGDRVTITCRASQGISSALAWYQQRPGKAPRLLIYDASSLDSGVPSRFSGSGSGTDFTLTISSLQSEDFATYYCQQFINNPLTFGGGTKVEIK
notes: IgG; V domains only
B13: C855 (antibody, V domains shown)
VH: QVQLVESGGGVVQPGRSLRLSCAASGFAFSTYGMHWVRQTPGKGLAWVAAISYDGRNTYYGDSVKGRFTITRDNSKNTLYLQLNSLRDEDTALYYCARDATMITLVRGIMGPPFDHWGQGSLVTVSS
VL: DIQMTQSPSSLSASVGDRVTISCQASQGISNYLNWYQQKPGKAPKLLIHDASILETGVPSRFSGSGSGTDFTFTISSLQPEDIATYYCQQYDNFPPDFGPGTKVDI
notes: IgG; V domains only
B14: C846 (antibody, V domains shown)
VH: QVQLVESGGGVFQPGRSLRLSCAASGFNFRTYAMHWVRQAPGKGLEWVAVILDDGSGKFYADSVKGRFTVSRDNSKHTLYLQMTSLSAEDTAIYFCARDQGTATTYFDHWGQGTLVTVSS
VL: DIQMTQSPSSLSASVGDRVTITCRASQSIRTFLSWYQQKAGKAPKLLIYTASSLQNGVPSRFSGSGSGTDFTLTISSLQPEDFATYYCQQSYETPPWTFGQGTKVEIK
notes: IgG; V domains only
B15: C851 (antibody, V domains shown)
VH: QLQLQESGPGLVKTSETLSLTCTVSGGSISSGNSYWGWIRQPPGKGLEWIGDIYYSGSTFYNPSLKSRLTISVDTSKNQFSLKLTSVTAADTAVYYCARRGGRTPVRFNYGGDVWGQGTTVTVSS
VL: DIQMTQSPSSLSASVGDRVTITCQASQDISRYLNWFQHKPGKAPKLLIYDASNLEAGVPSRFTGSGSGTEFTFTISSLQPEDFAIYFCQQYDSLPLTFGGGTKVEI
notes: IgG; V domains only
B16: C844 (antibody, V domains shown)
VH: EVQLVESGGGLVKPGGSLRLSCVATGFSFSDAWMNWVRQAPGKGLEWVGRIRSEIADGTTDYAAPVKGRFTISRDDARNTLYLQMNSLEIEDTAVYYCTTGVVVVVSSSPDDAFDVWGQGTMVTVSS
VL: DIQMTQSPSSLSASVGDRVTITCRASQSIGHYLNWYQQKPGKAPKLLIYAASSLQSGVPSRFSGSGSGAGFTLTVNGLQPEDLATYYCQQYYTTPPTFGQGTKVEIK
notes: IgG; V domains only
B17: C864 (antibody, V domains shown)
VH: QVQLVQSGPEVKKPGTSVKVSCKAFQLSFSVSAVQWVRQARGQRLEWIGWIVVGSGNTNYAQKFQERVTITRDMSTSTVYMEVRSLRSEDTAVYYCAAPQCNRTTCYDAFDMWGQGTMVTVSS
VL: EIVLTQSPGTLSLSPGERATLSCRASQSVNSNYLAWYQQKPGQAPRLLIFGPSNRATGIPDRFSGSGSGTDFTLTISRLESEDFAVYYCQQYGSSPWTFGQGTKVEIK
notes: IgG; V domains only
B18: C853 (antibody, V domains shown)
VH: QVQLQESGPGLVKASQTLSLTCTVSGGSFRSGGYYYNWIRQHPGKGLEWIGYIFYTGVTYYNPSLKSRVSISVDTSKNQLSLNLTSVTAADTAVYYCARGSYSDYNGGWDYWGRGTLVTVS
VL: QSALTQPPSASGSPGQSVTISCIGTSSDVGGYNYVSWYQHHPGKAPKLIIYEVSKRPSGVPDRFSGSKSGNTASLTVSGLQADDEADYYCSSYAGSNNWVFGGGTKLTV
notes: IgG; V domains only
B19: C841 (antibody, V domains shown)
VH: EVQLVESGGGLVQPGGSLRLSCAASGFTFSIFSMNWVRQAPGKGLEWISYISSSSGSRHYADSVKGRFTISRDNAKNSLYLQMNNLRDEDTAMYYCAREAHDGALTGYGDYLNWFDPWGQGVLVTVSS
VL: SYELTQPPSVSVAPGKTARIPCGGDSVGSKSVHWYQQKSGQAPVLVIHSDSDRPSGIPERFSGSNSGNTATLTITGVAAGDEADYYCHVWDTIGDRFYWVFGGGTKLTVL
notes: IgG; V domains only
B20: C856 (antibody, V domains shown)
VH: QVQLVESGGGVVQPGRSLRLSCAASGFTFSSYGMHWVRQAPGKGLEWVAVISYDGSNKYYADSVKGRFTISRDNSKNTLYLQMSSLRAEDTAVYYCAKQIGEYCSGGSCYQGSLDYWGQGTLVTVSS
VL: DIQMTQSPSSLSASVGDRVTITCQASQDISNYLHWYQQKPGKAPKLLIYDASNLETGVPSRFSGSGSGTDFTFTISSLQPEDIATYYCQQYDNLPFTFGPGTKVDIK
notes: IgG; V domains only
B21: C843 (antibody, V domains shown)
VH: B20 VH with S31R, G33A, D62T, V64L, F68C, S84N, Y95F, S108N
VL: DIQMTQSPSSLSASVGDRVTITCQASQDISNYLNWYQQKPGKAPKLLIYDASDLETGVPSTFSGSGSGTDFTLTISSLQPEDFATYYCQQYDIVPFTFGPGTKVDIK
notes: IgG; V domains only
B22: C859 (antibody, V domains shown)
VH: QVQLVQSGAELKKPGASVRVSCKASGYTFTDYYIHWVRQAPGQGFEWMGWINPDSGGTNYPQNFQGRVTMTRGTSISTAYVELTRLRFDDTAVYYCARTSSPHSSSTGDLDYWGQGTLVTVS
VL: SYELTQSPSVSVAPGKTARITCGGRDIGSKSVHWYQQRPGQAPVLVISYDNDRPSGIPERFSGSNSGNTATLTISRVEAGDEADYYCQVWDGTGDHPGWVFGGGTRLTVL
notes: IgG; V domains only
B23: C849 (antibody, V domains shown)
VH: QVQLVQSGAEVKKPGASVKVSCRASGYTFTDHYIHWVRQAPGQGLEWMGWINPNSGDTNYPQKFQGRVTMARDTSISTAHMELRRLKSDDTAVYYCARTSSPHSSSTGDFDSWGQGTLVTVSS
VL: B22 VL with S7P, R25D, R38K, P39S, S48H, Y49D, N51S, G92F, R106K
notes: IgG; V domains only
B24: C854 (antibody, V domains shown)
VH: EVQLVESGGGLIQPGGSLRLSCAASGITVSSNYMNWVRQAPGKGLEWVSVLYAGGSTFYADSVKGRFTISRDDSKNTLYLQMDSLRAEDTAVYYCARDLSSSGGFDYWGQGTLVTVSS
VL: EIVLTQSPGTLSLSPGERATLSCRASQSVSSSYLAWYQQKPGQAPRLLIYGASSRATGIPDRFSGRGSGTDFTLTISRLEPEDFAVYYCQQYGSLYTFGQGTKLEIK
notes: IgG; V domains only

Molecular target: T1, SARS-COV-2 RBD (SARS-COV-2, UniProt P0DTC2 319-539)
T1 construct: also called WT RBD
Test: ELISA, RBD coated

Row | Binder | EC50 [ng/mL]
1 | B1 | 2.61
2 | B2 | 4.59
3 | B3 | 4.38
4 | B4 | 3.7
5 | B5 | 2.23
6 | B6 | 2.01
7 | B7 | 1.5
8 | B8 | 3.31
9 | B9 | 1.36
10 | B10 | 3.06
11 | B11 | 3.01
12 | B12 | 2.14
13 | B13 | 2.73
14 | B14 | 3.48
15 | B15 | 2.83
16 | B16 | 1.53
17 | B17 | 1.89
18 | B18 | 2.3
19 | B19 | 3.15
20 | B20 | 2.65
21 | B21 | 2.4
22 | B22 | 2.75
23 | B23 | 3.64
24 | B24 | 2.57
